Experimental data published in publication PMC8184503 (iScience, 2021).
Each block holds one binder with its values, some of them ahead of it. Primed or numbered codes have the meaning given here. Where no end group is shown, it is not given here. FITC′ = fluorescein isothiocyanate

Target: T1, His-tagged β-cat (ARM domain, aa 134-668) (UniProt P35222 134-668)
T1 sequence (looked up): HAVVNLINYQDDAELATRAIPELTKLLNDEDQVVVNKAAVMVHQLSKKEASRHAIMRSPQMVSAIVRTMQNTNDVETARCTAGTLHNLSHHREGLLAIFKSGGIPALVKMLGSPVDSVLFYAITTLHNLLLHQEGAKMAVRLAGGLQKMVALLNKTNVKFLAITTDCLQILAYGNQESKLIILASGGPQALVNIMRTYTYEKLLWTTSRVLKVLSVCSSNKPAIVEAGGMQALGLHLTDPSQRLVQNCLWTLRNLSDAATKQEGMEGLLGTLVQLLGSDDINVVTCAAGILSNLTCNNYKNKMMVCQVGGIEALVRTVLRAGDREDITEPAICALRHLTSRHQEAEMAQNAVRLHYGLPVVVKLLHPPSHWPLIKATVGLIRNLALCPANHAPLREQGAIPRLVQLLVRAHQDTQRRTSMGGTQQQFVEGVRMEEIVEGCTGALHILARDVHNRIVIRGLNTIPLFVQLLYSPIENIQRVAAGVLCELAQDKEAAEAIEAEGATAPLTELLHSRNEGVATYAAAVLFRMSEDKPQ
Assay: SPR

binding result: binds
B1: GST-tagged TCF4 N-terminal domain (aa 1-55) (domain or fragment, UniProt Q9NQB0 1-55, looked up)
chain: MPQLNGGGGDDLGANDELISFKDEGEQEEKSSENSSAERDLADVKSSLVNESETN

IC50: 29 nM
Binder: GGGDDLGANDELISFKDEGEQEEKSSENSSAERDLADVKSSLVNE-{FITC′} [C-terminal FITC-labeled TCF4 peptide (aa 7-51)]
